Assays:
[1] = target: human δ-opioid receptor (pcDNA3.1-human DOR) (human) (UniProt P41143)
[2] = target: human μ-opioid receptor (pcDNA3.1-human MOR) (human) (UniProt P35372)
[3] = target: human μ-opioid receptor (pcDNA3.1-human MOR) (human) (UniProt P35372); remark: listed apart in the source
[4] = target: human μ-opioid receptor (pcDNA3.1-human MOR) (human) (UniProt P35372); assay: radioligand binding

DADLE (peptide)
Gi/o-mediated cAMP inhibition (GloSensor, HEKT cells), pEC50 [1]: 9.69

[D-Ala2, N-MePhe4, Gly-ol]-enkephalin (peptide)
Gi/o-mediated cAMP inhibition (GloSensor, HEKT cells), pEC50 [2]: 8.65 | maximal net BRET in the G protein (GoA) dissociation assay [3]: 0.15 | Kd [4]: 4.37 nM | pKd [4]: 8.36

— PMC10320493
